According to patent publication EP0896625B1:

Key:
Experiment in all cases: cell-based or functional assay
[1] = biological target: recombinant human eosinophil-derived neurotoxin (human)
[2] = biological target: rEDN(1-21)rOnc (human; Rana pipiens)
[3] = biological target: [Met-(-1)]rOncG20 (Rana pipiens)
rEDN(1-21)rOncG26 = biological target: rEDN(1-21)rOncG26
[4] = biological target: Native ONCONASE (Rana pipiens)
[5] = biological target: [Met-(-1)]rOnc (Rana pipiens)

Substance: Placental ribonuclease inhibitor (from UniProt P13489 2-461)
- Fold Difference, (+)PRI against (-)PRI [1]: > 30.7 fold
- IC50 (ng/ml), (+)PRI, inhibition of protein synthesis in the rabbit reticulocyte lysate [1]: > 40 ng/mL
- IC50 (ng/ml), (+)PRI, inhibition of protein synthesis in the rabbit reticulocyte lysate [2]: 3200 ng/mL
- Fold Difference, (+)PRI against (-)PRI [3]: 0.9 fold
- IC50 (ng/ml), (+)PRI, inhibition of protein synthesis in the rabbit reticulocyte lysate [3]: 24 ng/mL
- Fold Difference, (+)PRI against (-)PRI (rEDN(1-21)rOncG26): 21 fold
- IC50 (ng/ml), (+)PRI, inhibition of protein synthesis in the rabbit reticulocyte lysate (rEDN(1-21)rOncG26): 600 ng/mL
- Fold Difference, (+)PRI against (-)PRI [4]: 1.2 fold
- IC50 (ng/ml), (+)PRI, inhibition of protein synthesis in the rabbit reticulocyte lysate [4]: 0.24 ng/mL
- Fold Difference, (+)PRI against (-)PRI [5]: 1.4 fold
- IC50 (ng/ml), (+)PRI, inhibition of protein synthesis in the rabbit reticulocyte lysate [5]: 140 ng/mL
